Assay results taken from patent publication US20220282255A1.

Target: Recombinant Human TGF-β1, manufactured by Peprotech (human) (UniProt P01137)
Assay: cell-based or functional assay

Chain of Recombinant Human TGF-β1, manufactured by Peprotech (human) (P01137 279-390 limits assumed): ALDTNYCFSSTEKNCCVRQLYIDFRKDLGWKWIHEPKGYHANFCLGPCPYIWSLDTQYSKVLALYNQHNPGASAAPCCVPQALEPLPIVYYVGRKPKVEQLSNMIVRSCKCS

- cell (luciferase assay inhibitory rate (%)): 100%
Substance: known TGF-β antibody (R&D, MAB1835)
